Data on three molecules can be found in US20200347127A1 (CRESCENDO BIOLOGICS, published 2020).

Read-outs that look alike come from different tables or passages of the source.

One assay deals with T1, IL-17F (UniProt Q96PD4 31-163, limits assumed).
T1 sequence (looked up): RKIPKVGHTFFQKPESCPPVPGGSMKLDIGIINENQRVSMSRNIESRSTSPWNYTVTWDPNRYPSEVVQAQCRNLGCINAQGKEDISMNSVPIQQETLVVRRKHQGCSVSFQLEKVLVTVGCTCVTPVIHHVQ
The assay can be described thus: specificity ELISA on coated antigen, VH concentration not given.

The target in another assay is T2, IL17E.
T2 construct: also called IL-25
T2 chain: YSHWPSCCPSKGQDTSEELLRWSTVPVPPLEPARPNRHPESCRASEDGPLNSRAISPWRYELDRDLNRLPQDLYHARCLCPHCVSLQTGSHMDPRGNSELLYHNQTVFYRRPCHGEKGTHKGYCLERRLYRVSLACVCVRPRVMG
The assay is described as above.

A further assay deals with T3, IL-17C (UniProt Q9P0M4 19-197, limits assumed).
T3 sequence (looked up): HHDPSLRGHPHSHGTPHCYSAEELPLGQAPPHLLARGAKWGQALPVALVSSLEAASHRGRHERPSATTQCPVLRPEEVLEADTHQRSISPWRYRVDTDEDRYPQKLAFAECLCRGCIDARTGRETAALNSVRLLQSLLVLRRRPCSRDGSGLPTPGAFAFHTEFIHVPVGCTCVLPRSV
The assay is described as above.

Assay [1] concerns the target T4, recombinant human IL-17A (human, UniProt Q16552 24-155). The assay can be described thus: cell-based or functional assay.
Assay [2] addresses T4, recombinant human IL-17A. Briefly: competition ELISA, IL-17A binding to coated IL-17RA-Fc.
Description: (§1) Following washing of excess coating antigen, as described above, the wells of the plate were incubated with 3% skimmed milk powder/PBS to block non-specific protein interactions. […] The mixture was then transferred to the assay plate and incubated for 1 hour at room temperature.
(§2) Where appropriate, curve fitting in PRISM was used to determine the EC₅₀ of inhibiting VH.
The target of assay [3] is T4, recombinant human IL-17A. Briefly: SPR (BIAcore T200), IL-17A coupled to CM5 chip, single-cycle kinetics.
Description: (§3) VH binding kinetics were then determined from the (blank subtracted) sensorgram traces using 1:1 binding models and BIAevaluation software.
Assay [4] has as its target T4, recombinant human IL-17A. Described as above. The source holds these as a separate data set.
Description: as §3
Assay [5] concerns the target T4, recombinant human IL-17A. The assay can be described thus: cell-based or functional assay. This is another data set of the same source.
In assay [6] the target is T4, recombinant human IL-17A. The assay can be described thus: competition ELISA, IL-17A binding to coated IL-17RA-Fc (FIG. 9B); FIG. 9B.
Description: as §1, §2
Assay [7] has as its target T4, recombinant human IL-17A. Briefly: cell-based or functional assay. The source holds these as a separate data set.
Assay [8] has as its target T4, recombinant human IL-17A. The assay can be described thus: BIAcore single-cycle kinetics on IL-17A (n=2 per legend).
For assay [9], the target named is T4, recombinant human IL-17A. Briefly: BIAcore single-cycle kinetics, ligand Il-17, 1:1 binding fit, 25 C (n=1 per legend).
Assay [10] concerns the target T4, recombinant human IL-17A. The assay can be described thus: BIAcore single-cycle kinetics on IL-17A (n=2 per legend). The source holds these as a separate data set.
Assay [11] concerns the target T4, recombinant human IL-17A. The assay can be described thus: BIAcore single-cycle kinetics, ligand Il-17, 1:1 binding fit, 25 C (n=1 per legend). The source holds these as a separate data set.

T4 sequence (Q16552 24-155): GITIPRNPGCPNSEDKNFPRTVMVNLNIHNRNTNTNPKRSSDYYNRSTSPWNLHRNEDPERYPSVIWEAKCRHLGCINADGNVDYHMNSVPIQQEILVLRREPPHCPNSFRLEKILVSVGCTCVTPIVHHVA

B1: VH 1.1.1 (clone 1.1 expressed from phagemid vector: with linker residues and His tag) (VHH)
VHH: EVQLVESGGGLVQPGGSLRLSCAASGFTFSSYSMYWVRQAPGKGLEWVANIKQDGSEKYYVDSVKGRFTISRDNAKNSLFLQMNSLRAEDTAVYYCAKGEILPLHFDYWGQGTLVTVSS
notes: Human single VH domain; also called Family 1 (clone 1.1)
Consider B1, for which the binding result with IL-17F, with IL17E and in the assay with IL-17C was “no binding” throughout. The “Cell assay IC50 (nM), IL-17A-induced IL6 release from HT1080” value with recombinant human IL-17A [1] and with recombinant human IL-17A [5] was 13 nM throughout. Further, the values for the IC50 in the assay with recombinant human IL-17A [2] and in the assay with recombinant human IL-17A [6] were 53 nM and 29 nM, respectively. The Kd with recombinant human IL-17A [3] and with recombinant human IL-17A [4] was 5 nM in each case. The koff with recombinant human IL-17A [3] and with recombinant human IL-17A [4] was 0.00149 s⁻¹ throughout. In addition, the kon with recombinant human IL-17A [3] and with recombinant human IL-17A [4] was 296000 M⁻¹ s⁻¹ each time.

B2: 3.2-2(G4S)-1.2 (VHH)
VH-linker-VH: QVQLVQSGAEVKKPGASVKVSCKASGYNADAYYINWVRQAPGQGLEWMGSIKPNTGATKYAQKFQGRVTITRDTSISTAYMELSRLRSDDTAVYYCASLDRDTWYPHSYAGWFDAWGQGTLVTVSSAAGGGGSGGGGSEVQLVESGGGLVQPGGSLRLSCAASGFTFSSYSMYWVRQAPGKGLEWVAEIKQDGSVQYYVSDVKGRFTISRDNAKNSLYLQMNSLRAEDTAVYYCAKGEILPLYFDYWGQGTLVTVSS
notes: also called Biparatopic: 3.2-2(G4S)-1.2
Take B2: the EC50 with recombinant human IL-17A [7] was found to be 1.07 nM. For the same molecule, the Kd with recombinant human IL-17A [8] amounted to 0.045 nM. In the assay with recombinant human IL-17A [9], the Kd was found to be 0.0429 nM, the off-rate constant (koff) amounted to 4.75e-05 s⁻¹ and the kon was found to be 1.1e+06 M⁻¹ s⁻¹.

B3: 3.2-6(G4S)-1.2 (VHH)
VH-linker-VH: QVQLVQSGAEVKKPGASVKVSCKASGYNADAYYINWVRQAPGQGLEWMGSIKPNTGATKYAQKFQGRVTITRDTSISTAYMELSRLRSDDTAVYYCASLDRDTWYPHSYAGWFDAWGQGTLVTVSSAAGGGGSGGGGSGGGGSGGGGSGGGGSGGGGSEVQLVESGGGLVQPGGSLRLSCAASGFTFSSYSMYWVRQAPGKGLEWVAEIKQDGSVQYYVSDVKGRFTISRDNAKNSLYLQMNSLRAEDTAVYYCAKGEILPLYFDYWGQGTLVTVSS
notes: also called Biparatopic 3.2-6(G4S)-1.2
B3: in the assay with recombinant human IL-17A [7], the EC50 was determined as 0.923 nM. Besides, the Kd with recombinant human IL-17A [10] was 0.02 nM. Besides, in the assay with recombinant human IL-17A [11], the Kd worked out at 0.0198 nM, the koff was 3.02e-05 s⁻¹ and the kon was found to be 1.52e+06 M⁻¹ s⁻¹.
